The supplement of paper PMC9732359
± gives the uncertainty stated by the source.

Test: protein stability index of a GFP-peptide fusion (yeast GPS) (PSI 1-4); higher = more stable; sorted into four equal gates, so the index is relative within each strain
Summary of the method: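 The protein stability index combines read frequencies across sorting gates, each weighted by its gate number and then summed. To obtain those frequencies, a pooled yeast library of GFP fusions to tiled 17-residue yeast protein peptides, on a plasmid also expressing Cherry, was grown to mid-log phase in leucine-free medium. The cells were sorted into four equal gates by GFP/Cherry ratio before plasmid amplification by PCR and Illumina sequencing.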

LTNILRMMGCVKKQKSA [FAS2]
protein stability index (doa10∆): 1.91 ± 0.068
protein stability index (pdr5∆): 2.1 ± 0.078
protein stability index (san1∆): 1.81 ± 0.12
protein stability index (ubr1∆): 1.35 ± 0.066

LTPNEIKELEHLHDAVF [SWP82]
protein stability index (doa10∆): 2.95 ± 0.072
protein stability index (pdr5∆): 3.18 ± 0.075
protein stability index (san1∆): 3.13 ± 0.055
protein stability index (ubr1∆): 2.95 ± 0.052

LTVAMYINSDSVNPAML [RPO31]
protein stability index (doa10∆): 2.4 ± 0.11
protein stability index (pdr5∆): 2.47 ± 0.11
protein stability index (san1∆): 2.69 ± 0.14
protein stability index (ubr1∆): 2.68 ± 0.082

LTYDRLEFATIRKGAND [PRE9]
protein stability index (san1∆): 2.62 ± 0.24

LVDILPPDSDSSISVMG [RPT3]
protein stability index (doa10∆): 2.23 ± 0.068
protein stability index (pdr5∆): 2.27 ± 0.063
protein stability index (san1∆): 2.24 ± 0.065
protein stability index (ubr1∆): 2.72 ± 0.055

LVDTPSNNTAATADTTH [NUT1]
protein stability index (san1∆): 3.21 ± 0.059
protein stability index (ubr1∆): 3.17 ± 0.082

LVEAAKLLKIPKFISEA [YDL116W/NUP84]
protein stability index (doa10∆): 2.65 ± 0.081
protein stability index (pdr5∆): 2.61 ± 0.064
protein stability index (san1∆): 2.46 ± 0.088
protein stability index (ubr1∆): 2.76 ± 0.042

LVEEKTPGLTFNAIDLA [RPC82]
protein stability index (doa10∆): 3.23 ± 0.12
protein stability index (pdr5∆): 3.29 ± 0.11
protein stability index (san1∆): 3.25 ± 0.057
protein stability index (ubr1∆): 3.27 ± 0.086

LVIGIFKRDLLREKEDK [YJL039C/NUP192]
protein stability index (doa10∆): 2.95 ± 0.098
protein stability index (pdr5∆): 2.28 ± 0.11
protein stability index (san1∆): 2.86 ± 0.069
protein stability index (ubr1∆): 2.34 ± 0.1

LVKALEDIMVHYDNTTR [RPO21]
protein stability index (doa10∆): 1.46 ± 0.061
protein stability index (pdr5∆): 1.91 ± 0.062
protein stability index (san1∆): 1.32 ± 0.086
protein stability index (ubr1∆): 1.68 ± 0.072

LVLLNGRLRNKSHKQTI [RPP1]
protein stability index (doa10∆): 2.65 ± 0.088
protein stability index (pdr5∆): 2.85 ± 0.059
protein stability index (san1∆): 2.98 ± 0.047
protein stability index (ubr1∆): 2.97 ± 0.061

LVLYDAENDVIEATDLG [BRR2]
protein stability index (doa10∆): 3.29 ± 0.13
protein stability index (pdr5∆): 3.26 ± 0.12
protein stability index (san1∆): 3.45 ± 0.092
protein stability index (ubr1∆): 3.24 ± 0.066

LVQLEPHLFVNGDLTVS [SSN2]
protein stability index (doa10∆): 1.77 ± 0.1
protein stability index (pdr5∆): 1.9 ± 0.069
protein stability index (san1∆): 1.53 ± 0.16
protein stability index (ubr1∆): 1.5 ± 0.16

LVQLKKFSDLKFILQIL [YML103C/NUP188]
protein stability index (doa10∆): 2.15 ± 0.08
protein stability index (pdr5∆): 1.91 ± 0.075
protein stability index (san1∆): 2.34 ± 0.11
protein stability index (ubr1∆): 1.44 ± 0.059

LVSANNDNNSPHTPVTR [YLR018C/POM34]
protein stability index (doa10∆): 2.63 ± 0.12
protein stability index (pdr5∆): 2.85 ± 0.072
protein stability index (san1∆): 2.92 ± 0.08
protein stability index (ubr1∆): 2.95 ± 0.12

LVSMRYPEDKKTQQNEK [RPN3]
protein stability index (san1∆): 3.24 ± 0.039
protein stability index (ubr1∆): 3.12 ± 0.12

LVSSYLNKSDLLDKYGK [YML103C/NUP188]
protein stability index (doa10∆): 2.87 ± 0.091
protein stability index (pdr5∆): 3.13 ± 0.058
protein stability index (san1∆): 3.17 ± 0.053
protein stability index (ubr1∆): 2.89 ± 0.065

LVVRFTNKDIICQIISS [RPL5]
protein stability index (doa10∆): 1.62 ± 0.055
protein stability index (pdr5∆): 1.79 ± 0.062
protein stability index (san1∆): 1.25 ± 0.18
protein stability index (ubr1∆): 1.67 ± 0.051

LWDQDIAIAGTGQIEGL [COR1]
protein stability index (doa10∆): 3.12 ± 0.089
protein stability index (pdr5∆): 3.37 ± 0.077
protein stability index (san1∆): 3.05 ± 0.055
protein stability index (ubr1∆): 2.98 ± 0.05

LWINYIKELLNITKNLK [POP4]
protein stability index (doa10∆): 1.34 ± 0.071
protein stability index (pdr5∆): 1.56 ± 0.062
protein stability index (san1∆): 1.62 ± 0.11
protein stability index (ubr1∆): 1.78 ± 0.054

LWSGKQILSVAIPNGIH [RPO21]
protein stability index (doa10∆): 1.57 ± 0.066
protein stability index (pdr5∆): 1.59 ± 0.051
protein stability index (san1∆): 1.37 ± 0.088
protein stability index (ubr1∆): 1.71 ± 0.087

LYDRPLKPDLNKITNQG [NAS6]
protein stability index (doa10∆): 3.22 ± 0.096
protein stability index (pdr5∆): 3.42 ± 0.1
protein stability index (san1∆): 3.11 ± 0.07
protein stability index (ubr1∆): 3.4 ± 0.073

LYEKDIVPSMTHLEIEP [RET1]
protein stability index (doa10∆): 2.68 ± 0.098
protein stability index (pdr5∆): 2.65 ± 0.089
protein stability index (san1∆): 2.73 ± 0.09
protein stability index (ubr1∆): 2.85 ± 0.053

LYGLNLTLRKAKAPSGL [FAS1]
protein stability index (doa10∆): 2.92 ± 0.089
protein stability index (pdr5∆): 2.17 ± 0.12
protein stability index (san1∆): 3.53 ± 0.068
protein stability index (ubr1∆): 2.42 ± 0.15

LYKIFSYALSMEKDKLK [SNU114]
protein stability index (doa10∆): 1.84 ± 0.097
protein stability index (pdr5∆): 1.33 ± 0.052
protein stability index (san1∆): 1.63 ± 0.17
protein stability index (ubr1∆): 1.65 ± 0.049

LYPDSSSFKKNLLKFIT [RPN3]
protein stability index (doa10∆): 1.19 ± 0.075
protein stability index (pdr5∆): 1.26 ± 0.069
protein stability index (san1∆): 1.05 ± 0.13
protein stability index (ubr1∆): 1.25 ± 0.18

LYQTYHVLVGDLIKFSA [FAS1]
protein stability index (doa10∆): 2.2 ± 0.05
protein stability index (pdr5∆): 2.43 ± 0.052
protein stability index (san1∆): 2.39 ± 0.044
protein stability index (ubr1∆): 2.31 ± 0.035

LYSGLIIDEIITQMRVN [RPC82]
protein stability index (doa10∆): 2.12 ± 0.078
protein stability index (pdr5∆): 2.36 ± 0.094
protein stability index (san1∆): 2.71 ± 0.2
protein stability index (ubr1∆): 1.58 ± 0.068

LYTLVINDAGKAKKLIQ [RPL38]
protein stability index (doa10∆): 2.06 ± 0.11
protein stability index (pdr5∆): 2.19 ± 0.098
protein stability index (san1∆): 1.99 ± 0.1
protein stability index (ubr1∆): 1.56 ± 0.13

MACNFQFPEIAYPGKLI [CSL4]
protein stability index (doa10∆): 2.88 ± 0.12
protein stability index (pdr5∆): 2.9 ± 0.12
protein stability index (san1∆): 2.76 ± 0.12
protein stability index (ubr1∆): 2.62 ± 0.16

MADLQKQENSSRFTNVS [YMR153W/NUP53]
protein stability index (doa10∆): 3.23 ± 0.15
protein stability index (pdr5∆): 3.1 ± 0.14
protein stability index (san1∆): 2.36 ± 0.24
protein stability index (ubr1∆): 3.31 ± 0.12

MAGLMHFKKPDITVHGE [RRP45]
protein stability index (doa10∆): 2.89 ± 0.19
protein stability index (pdr5∆): 2.14 ± 0.13
protein stability index (san1∆): 1.76 ± 0.16
protein stability index (ubr1∆): 1.25 ± 0.092

MAGSQFENGNITGEDEV [RRP45]
protein stability index (doa10∆): 3.02 ± 0.095
protein stability index (pdr5∆): 3.08 ± 0.1
protein stability index (san1∆): 3.13 ± 0.13
protein stability index (ubr1∆): 2.95 ± 0.09

MAIEIINDIRDDDIEKQ [YCG1]
protein stability index (pdr5∆): 3.07 ± 0.16
protein stability index (san1∆): 3.19 ± 0.11
protein stability index (ubr1∆): 3.27 ± 0.14

MAKTLKDLDGWQVIITD [SIR3]
protein stability index (doa10∆): 1.65 ± 0.16
protein stability index (pdr5∆): 2.4 ± 0.12
protein stability index (san1∆): 2.81 ± 0.14
protein stability index (ubr1∆): 2.71 ± 0.14

MAKVHGSLARAGKVKSQ [RPS30A]
protein stability index (doa10∆): 2.38 ± 0.067
protein stability index (pdr5∆): 2.7 ± 0.068
protein stability index (san1∆): 2.49 ± 0.066
protein stability index (ubr1∆): 2.44 ± 0.054

MAPYLPGSRASSRFIKG [RPN2]
protein stability index (doa10∆): 2.44 ± 0.059
protein stability index (pdr5∆): 2.66 ± 0.064
protein stability index (san1∆): 2.45 ± 0.063
protein stability index (ubr1∆): 2.53 ± 0.044

MASNEVLVLRGTLEGHN [ASC1]
protein stability index (doa10∆): 3.06 ± 0.17
protein stability index (pdr5∆): 2.22 ± 0.16
protein stability index (san1∆): 3.24 ± 0.13
protein stability index (ubr1∆): 3.16 ± 0.25

MCGVIVKQYNKKWPQFY [SIN4]
protein stability index (doa10∆): 1.65 ± 0.13
protein stability index (pdr5∆): 1.99 ± 0.096
protein stability index (san1∆): 1.62 ± 0.097
protein stability index (ubr1∆): 1.74 ± 0.046

MDKPLNFRILKSFTNDK [SRB5]
protein stability index (doa10∆): 3.15 ± 0.06
protein stability index (pdr5∆): 3.11 ± 0.059
protein stability index (san1∆): 3.14 ± 0.042
protein stability index (ubr1∆): 3.16 ± 0.036

MENIKKSIDSKTPEEVE [ISW2]
protein stability index (doa10∆): 2.92 ± 0.17
protein stability index (pdr5∆): 3.09 ± 0.23
protein stability index (san1∆): 3.13 ± 0.089
protein stability index (ubr1∆): 3.23 ± 0.11

MENILQRCKSNAISLQL [YIL149C/MLP2]
protein stability index (doa10∆): 1.9 ± 0.046
protein stability index (pdr5∆): 2 ± 0.048
protein stability index (san1∆): 2.05 ± 0.071
protein stability index (ubr1∆): 1.57 ± 0.046

MESEEVPLTKRYQHLEK [PCI8]
protein stability index (doa10∆): 2.85 ± 0.075
protein stability index (pdr5∆): 3.07 ± 0.067
protein stability index (san1∆): 2.92 ± 0.048
protein stability index (ubr1∆): 3.14 ± 0.065

MEYLSGGEKTVAALALL [SMC1]
protein stability index (doa10∆): 2.2 ± 0.15
protein stability index (pdr5∆): 2.41 ± 0.11
protein stability index (san1∆): 1.68 ± 0.19
protein stability index (ubr1∆): 2.3 ± 0.13
